{"source": "patent US11471462B2", "about": "“Compositions and methods for detecting and treating diabetes” (THE BROAD INSTITUTE, INC., priority 2016, dated 2022)", "molecules": {"B1": {"name": "SLC25A3 (protein)", "chain": "AVEEYSCEFGSAKYYALCGFGGVLSCGLTHTAVVPLDLVKCRMQVDPQKYKGIFNGFSVTLKEDGVRGLAKGWAPTFLGYSMQGLCKFGFYEVFKVLYSNMLGEENTYLWRTSLYLAASASAEFFADIALAPMEAAKVRIQTQPGYANTLRDAAPKMYKEEGLKAFYKGVAPLWMRQIPYTMMKFACFERTVEALYKFVVPKPRSECSKPEQLVVTFVAGYIAGVFCAIVSHPADSVVSVLNKEKGSSASLVLKRLGFKGVWKGLFARIIMIGTLTALQWFIYDSVKVYFRLPRPPPPEMPESLKKKLGLTQ"}}, "tested_on": "SLC16A11", "test": "SLC16A11 protein-protein interaction study (immunoprecipitation, quantitative mass spectrometry)", "set-up": "species or system human", "settings": "putative SLC16A11^REF interaction partners; immunoprecipitation from HEK293T cells vs empty vector control; Blandt-Altman", "data": [{"molecule": "B1", "values": [{"measurement": "BA log fold change", "result": 1.65}]}]}
